{
  "source": "paper PMC2822728",
  "about": "(Neuron, 2010)",
  "proteins": {"B1": {"name": "HA-SynDIG1 (full-length mouse SynDIG1, N-terminal HA tag) (natural protein, UniProt A2ANU3 1-258, looked up)", "chain": "MDGIIEQKSVLVHSKISDAGKRNGLINTRNFMAESRDGLVSVYPAPQYQSHRLVASAAPGSLEGGRSEPVQQLLDPNTLQQSVESHYRPNIILYSDGVLRSWGDGVATDCCETTFIEDRSPTKDSLEYPDGKFIDLSGDDIKIHTLSYDVEEEEELQELESDYSSDTESEDNFLMMPPRDHLGLSVFSMLCCFWPLGIAAFYLSHETNKAVAKGDFHQASTSSRRALFLAVLSITIGTGIYVGVAVALIAYLSKNNHL"}},
  "target": "the molecule itself",
  "assay": "SDS-resistant dimers on SDS-PAGE",
  "data": [
    {"protein": "B1", "values": [
      {"measurement": "stoichiometry N", "result": 2}
    ]}
  ]
}
